Source: the supplement of paper PMC10567573
± gives the standard deviation.

Experiment: protein stability index of a GFP-peptide fusion (GPS, HEK-293T) (PSI 1-6); higher = more stable
[1] = treatment: DMSO, c terminus: a fixed tail appended
[2] = treatment: MLN4924 1 uM, 8 h, c terminus: a fixed tail appended
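Note: 24-mer peptide tiles fused after GFP, lentivirally expressed, FACS-sorted into six equal bins by GFP/DsRed ratio, decoded by Illumina sequencing, PSI is the read-weighted mean bin number.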

**Q.** What does the source list for HFVDEHGKDQGINIRQKVKELVEF [CLINT1]?
**A.** protein stability index [1]: 3.26 ± 0.23; protein stability index [2]: 3.83 ± 0.28

**Q.** For TQMIREGGARSLWRGNGINVLKIA [SLC25A25], which protein stability index [1] is on record?
**A.** The protein stability index was 2.72 ± 0.25.

**Q.** What about the protein stability index [2] of the same sequence?
**A.** Its protein stability index is 2.77 ± 0.21.

**Q.** For TQKLEEIKENAQDTMRQINKKGFW [TOR1AIP2], which protein stability index [1] is on record?
**A.** The protein stability index was 3.61 ± 0.16.

**Q.** What about the protein stability index [2] of the same sequence?
**A.** The protein stability index was 4.08 ± 0.36.

**Q.** For SYNITVTATDGGSPPLSTEAHFML [PCDHGA10], which protein stability index [1] is on record?
**A.** Its protein stability index is 2.03 ± 0.36.

**Q.** And the protein stability index [2]?
**A.** Its protein stability index is 2.09 ± 0.4.

**Q.** Which protein stability index [1] does the source give for SPAAPYFLGSSFSPVRCGGPGDAS [WEE1] here?
**A.** The protein stability index was 3.06 ± 0.3.

**Q.** What about the protein stability index [2] of the same sequence?
**A.** The protein stability index was 3.17 ± 0.35.

**Q.** Which protein stability index [1] does the source give for THSSVVLQGFDQLRLEGLLCDVTL [KLHL13] here?
**A.** Its protein stability index is 2.43 ± 0.33.

**Q.** What about the protein stability index [2] of the same sequence?
**A.** Its protein stability index is 2.19 ± 0.19.

**Q.** Which protein stability index [1] does the source give for DSSNSMQTIQKTTTRRIVDGKVVS [KRT18] here?
**A.** Its protein stability index is 3.61 ± 0.19.

**Q.** And the protein stability index [2]?
**A.** Its protein stability index is 3.73 ± 0.31.

**Q.** With AAAFPTEDSRTSKESMSEADRAQK [EHMT1] as the sequence, how does the protein stability index [1] read?
**A.** The protein stability index was 5.59 ± 0.25.

**Q.** And the protein stability index [2]?
**A.** Its protein stability index is 5.514 ± 0.053.

**Q.** Which protein stability index [1] does the source give for RGGGAAGAGGGGSGAGGGSGGSGG [KLHDC10] here?
**A.** Its protein stability index is 5.2 ± 0.66.

**Q.** And the protein stability index [2]?
**A.** The protein stability index was 4.89 ± 0.48.

**Q.** Which protein stability index [1] does the source give for YHQGCLVNPTGNLPMWSNQTWNNS [NANOGP8] here?
**A.** Its protein stability index is 2.5 ± 0.36.

**Q.** What about the protein stability index [2] of the same sequence?
**A.** The protein stability index was 2.57 ± 0.066.

**Q.** What does the source list for NKINAGMYILSPAVLRRIQLQPTS [GMPPB]?
**A.** protein stability index [1]: 2.24 ± 0.24; protein stability index [2]: 2.28 ± 0.38

**Q.** With GRVHLVKEKTAKHFFALKVMSIPD [PRKX] as the sequence, how does the protein stability index [1] read?
**A.** The protein stability index was 1.87 ± 0.52.

**Q.** What about the protein stability index [2] of the same sequence?
**A.** Its protein stability index is 2.38 ± 0.57.

**Q.** Which results are given for DHKRETERVVREALEKLRSEMEEE [ZMYND11]?
**A.** protein stability index [1]: 4.99 ± 0.18; protein stability index [2]: 5.35 ± 0.12

**Q.** With SDTRVGAPATGSGTPGPFTKEGGM [CHIT1] as the sequence, how does the protein stability index [1] read?
**A.** The protein stability index was 4.76 ± 0.26.

**Q.** What about the protein stability index [2] of the same sequence?
**A.** Its protein stability index is 4.98 ± 0.14.

**Q.** With LAAVTPHDFIEHILRKLPQQREKL [CCND2] as the sequence, how does the protein stability index [1] read?
**A.** The protein stability index was 2.53 ± 0.17.

**Q.** What about the protein stability index [2] of the same sequence?
**A.** The protein stability index was 2.74 ± 0.23.

**Q.** For IYVVGGFDGTAHLSSVEAYNIRTD [KLHL12], which protein stability index [1] is on record?
**A.** Its protein stability index is 3.08 ± 0.28.

**Q.** Which protein stability index [1] does the source give for KAQALRDNSTMGYMMAKKHLEINP [HSP90AB1] here?
**A.** The protein stability index was 3.39 ± 0.14.

**Q.** And the protein stability index [2]?
**A.** The protein stability index was 3.5 ± 0.23.

**Q.** Which protein stability index [1] does the source give for PGPPGSSRPVKGQVVTVHLQTSLE [FKBP8] here?
**A.** The protein stability index was 3.5 ± 0.48.

**Q.** And the protein stability index [2]?
**A.** The protein stability index was 3.53 ± 0.22.

**Q.** Which protein stability index [1] does the source give for TKETEQLRSQLQTLKQQHQQAVEQ [CCDC89] here?
**A.** The protein stability index was 4.9 ± 0.19.

**Q.** And the protein stability index [2]?
**A.** Its protein stability index is 4.87 ± 0.21.

**Q.** For QQTGDDDEVDDFEDFIFSHFFGDK [PBXIP1], which protein stability index [1] is on record?
**A.** Its protein stability index is 4.71 ± 0.51.

**Q.** What about the protein stability index [2] of the same sequence?
**A.** Its protein stability index is 4.9 ± 0.23.

**Q.** For PAASNSSDLFDLMGSSQATMTSSQ [CLINT1], which protein stability index [1] is on record?
**A.** Its protein stability index is 5.06 ± 0.16.

**Q.** What about the protein stability index [2] of the same sequence?
**A.** The protein stability index was 5.02 ± 0.17.

**Q.** Which results are given for LNRALSNLSSRWKNWWVRGILTLA [CDS2]?
**A.** protein stability index [1]: 3.17 ± 0.31; protein stability index [2]: 3.1 ± 0.49

**Q.** For LSMDEKVELYRIKFKESFAEMNRG [COX4I1], which protein stability index [1] is on record?
**A.** Its protein stability index is 2.9 ± 0.2.

**Q.** What about the protein stability index [2] of the same sequence?
**A.** Its protein stability index is 2.97 ± 0.21.

**Q.** For LFSLKESPEKFQIEANFPRRVLPC [FAF2], which protein stability index [1] is on record?
**A.** Its protein stability index is 2.61 ± 0.3.

**Q.** What about the protein stability index [2] of the same sequence?
**A.** The protein stability index was 2.84 ± 0.24.

**Q.** With PIDQGPAIGRVRVLEEQLVKAKEQ [FUT8] as the sequence, how does the protein stability index [1] read?
**A.** Its protein stability index is 5 ± 0.16.

**Q.** What about the protein stability index [2] of the same sequence?
**A.** Its protein stability index is 5.09 ± 0.27.

**Q.** What does the source list for LSLIARFSPIAIDGMSGLAGVGLS [ELAVL3]?
**A.** protein stability index [1]: 2.7 ± 0.73; protein stability index [2]: 2.48 ± 0.42

**Q.** Which protein stability index [1] does the source give for TLSKPSPMPVSQECFETLRGDERI [CHGA] here?
**A.** Its protein stability index is 4.81 ± 0.26.

**Q.** And the protein stability index [2]?
**A.** Its protein stability index is 4.75 ± 0.17.

**Q.** Which protein stability index [1] does the source give for QNVARIPEFELLWKDIIHNPQALS [INTS3] here?
**A.** The protein stability index was 2.47 ± 0.34.

**Q.** And the protein stability index [2]?
**A.** The protein stability index was 2.53 ± 0.3.

**Q.** Which protein stability index [1] does the source give for SNATATPSVRKKAGSFSRRLIKRF [C2CD2L] here?
**A.** Its protein stability index is 3.47 ± 0.18.

**Q.** What about the protein stability index [2] of the same sequence?
**A.** The protein stability index was 3.61 ± 0.18.

**Q.** For IQVLPKLSSSIIHEIDSILGNKPY [KCNAB2], which protein stability index [1] is on record?
**A.** The protein stability index was 1.98 ± 0.27.

**Q.** What about the protein stability index [2] of the same sequence?
**A.** Its protein stability index is 2.28 ± 0.27.

**Q.** What does the source list for LNGASVLPHKSIGESVPEPRIIM [GMPPB]?
**A.** protein stability index (treatment: DMSO, c terminus: native): 3.65 ± 0.17; protein stability index (treatment: MLN4924 1 uM, 8 h, c terminus: native): 3.71 ± 0.14

**Q.** With QALAGASSGRELGRPKELQPKKLH [ZNF263] as the sequence, how does the protein stability index [1] read?
**A.** Its protein stability index is 5.01 ± 0.46.

**Q.** What about the protein stability index [2] of the same sequence?
**A.** Its protein stability index is 4.82 ± 0.14.

**Q.** With HLIKHRRTHTGEQPYTCSICRRNF [ZNF75A] as the sequence, how does the protein stability index [1] read?
**A.** Its protein stability index is 2.56 ± 0.28.

**Q.** And the protein stability index [2]?
**A.** The protein stability index was 2.99 ± 0.41.

**Q.** Which results are given for GYGGGFSSSSSFGSGFGGGYGGGL [KRT16]?
**A.** protein stability index [1]: 2.47 ± 0.33; protein stability index [2]: 2.57 ± 0.14

**Q.** Which results are given for PPPPPKEGHQEGLVELPASFRELL [SCNN1D]?
**A.** protein stability index [1]: 4.29 ± 0.12; protein stability index [2]: 4.29 ± 0.1

**Q.** With TLYTAKKYAVPALEAHCVEFLTKH [BTBD1] as the sequence, how does the protein stability index [1] read?
**A.** The protein stability index was 2.7 ± 0.28.

**Q.** And the protein stability index [2]?
**A.** Its protein stability index is 2.48 ± 0.12.

**Q.** What does the source list for LEEAKQPKNDNVVIPECAHGGLYK [SMOC2]?
**A.** protein stability index [1]: 5.31 ± 0.14; protein stability index [2]: 5.146 ± 0.035

**Q.** Which results are given for KINKIRWLPQQNAAYFLLSTNDKT [PPP2R2B]?
**A.** protein stability index [1]: 2.69 ± 0.26; protein stability index [2]: 2.54 ± 0.039

**Q.** Which results are given for LAYLPFKLEKSIDSYYRLVIHRAL [PCDHGA10]?
**A.** protein stability index [1]: 2.25 ± 0.62; protein stability index [2]: 2.23 ± 0.81

**Q.** Which protein stability index [1] does the source give for YADFGPLNLAMVYRYCCKLNKKLK [CDC14A] here?
**A.** Its protein stability index is 2.9 ± 0.58.

**Q.** What about the protein stability index [2] of the same sequence?
**A.** The protein stability index was 2.56 ± 0.43.

**Q.** Which protein stability index [1] does the source give for YLPQCSYFKCVQKDIQPYMRRMVA [CCND2] here?
**A.** Its protein stability index is 2.11 ± 0.28.

**Q.** And the protein stability index [2]?
**A.** The protein stability index was 2.01 ± 0.33.

**Q.** With QGPTPRYFTWDEVAQRSGCEERWL [FADS1] as the sequence, how does the protein stability index [1] read?
**A.** Its protein stability index is 3.43 ± 0.27.

**Q.** And the protein stability index [2]?
**A.** The protein stability index was 3.39 ± 0.24.

**Q.** With SSLDLSYYPTSSSTSFMSSSSSSS [EMD] as the sequence, how does the protein stability index [1] read?
**A.** The protein stability index was 3.99 ± 0.06.

**Q.** And the protein stability index [2]?
**A.** The protein stability index was 3.84 ± 0.34.

**Q.** For EIVNYEPLGLEADMWSIGVITYIL [DAPK3], which protein stability index [1] is on record?
**A.** Its protein stability index is 2.35 ± 0.48.

**Q.** And the protein stability index [2]?
**A.** Its protein stability index is 1.98 ± 0.27.

**Q.** Which protein stability index [1] does the source give for LQLRYSLRILIGDPPHHDHHDEFC [BEX5] here?
**A.** The protein stability index was 2.74 ± 0.54.

**Q.** And the protein stability index [2]?
**A.** The protein stability index was 2.48 ± 0.45.
